Source: patent publication US20230331852A1 (OSE IMMUNOTHERAPEUTICS, published 2023)

Key:
[1] = molecular target: T1, recombinant human CLEC-1 protein with His Tag (#1704-CL R&D Systems) (human, UniProt Q8NC01 74-280); assay: ELISA on immobilised His-CLEC1 (from FIGURE 12)
T1 construct: Bought protein; also called His-CLEC1; His Clec-1; not shown: His tag
T1 sequence: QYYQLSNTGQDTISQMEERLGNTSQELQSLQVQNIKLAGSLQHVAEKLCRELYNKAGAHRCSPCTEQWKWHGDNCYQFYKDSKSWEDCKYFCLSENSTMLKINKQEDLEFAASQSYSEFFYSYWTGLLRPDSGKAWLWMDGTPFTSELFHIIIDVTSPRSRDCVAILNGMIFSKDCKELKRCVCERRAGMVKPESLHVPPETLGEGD
Protocol: Method: The binding activity of the anti-hCLEC1 antibodies was assessed by ELISA (Enzyme-linked immunosorbent assay). […] A second ELISA assays was performed, like above, with immobilization of CLEC1-Fc (OSE Immunotherapeutics) at 2 μg/ml. A third ELISA assays was performed to see the cross-reactivity with mouse CLEC1. Like above, ELISA was made with immobilization of mouse Fc-CLEC1 (OSE Immunotherapeutics) at 2 μg/ml in carbonate buffer instead of His-Clec. Purified antibodies were added at different concentrations to measure binding. […] Control antibody is a commercial anti-CLEC-1A antibody.

[2] = molecular target: T2, human CLEC-1A expressed on the cell membrane (human, UniProt Q8NC01 1-280); assay: flow cytometry on U266 cells, PE anti-human IgG; median fluorescence
T2 construct: Endogenous on human U266 myeloma cells, on monocyte-derived TGFb-DC and macrophages; on CHO cells after transduction with a Clec-1 expressing lentivirus; also called U266 CLEC1; CLEC-1A on U266 cells
T2 sequence: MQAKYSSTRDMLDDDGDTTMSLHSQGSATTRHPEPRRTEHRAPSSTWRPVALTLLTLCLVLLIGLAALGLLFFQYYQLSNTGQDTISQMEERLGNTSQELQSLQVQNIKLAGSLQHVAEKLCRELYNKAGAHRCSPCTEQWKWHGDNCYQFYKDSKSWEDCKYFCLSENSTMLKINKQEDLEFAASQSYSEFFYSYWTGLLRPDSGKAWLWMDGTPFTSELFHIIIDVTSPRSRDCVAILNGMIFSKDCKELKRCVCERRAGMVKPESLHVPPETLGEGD
Protocol: Method: To measure binding of anti-CLEC1 on human U266 cell lines (pre-blocked with Fcblock to blocking FcR), antibodies at different concentrations were incubated for 30 min at 4° C., and washed before stained 30 min at 4° C. with PE-labelled anti-human IgG (Biolegend; reference 409304). Samples were analyzed on Cytoflex cytofluorometer (Beckman Coulter). The MFI of anti-CLEC1 was compared between all anti-CLEC1 antibodies and percentage of stained cells was analysed in all conditions.

[3] = molecular target: T3, Fc-CLEC1 labelled with Alexa Fluor 488 (human, Alexa Fluor 488 label (sites not given)); assay: FACS competition: blocks Fc-CLEC1-A488 (10 nM) binding to CLEC-1 ligand on UV-treated PBMC
T3 construct: also called Fc-CLEC1-A488; Alexa488-Fc-Clec-1
T3 chain: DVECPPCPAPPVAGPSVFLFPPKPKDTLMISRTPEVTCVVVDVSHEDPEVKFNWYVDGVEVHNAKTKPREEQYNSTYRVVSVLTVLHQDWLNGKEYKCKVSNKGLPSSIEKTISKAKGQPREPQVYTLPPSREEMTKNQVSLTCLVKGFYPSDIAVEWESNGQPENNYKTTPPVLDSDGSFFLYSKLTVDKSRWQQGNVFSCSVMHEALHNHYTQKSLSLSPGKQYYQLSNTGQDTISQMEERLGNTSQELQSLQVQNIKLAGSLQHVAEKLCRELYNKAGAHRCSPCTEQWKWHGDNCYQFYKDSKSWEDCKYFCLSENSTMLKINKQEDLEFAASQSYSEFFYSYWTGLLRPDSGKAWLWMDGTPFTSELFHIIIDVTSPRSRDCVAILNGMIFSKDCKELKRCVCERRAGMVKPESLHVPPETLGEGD
Protocol: (§1) Competition were also measured on UV pre-treated pro-apoptotic human PBMCs, which can also express the ligand after a treatment under UV radiation for 18 hours. After UV treatment, cells were first washed in cold-PSE and then blocked during 30 min at room temperature with human Fc-block 50-fold diluted in PSE, and then replaced on ice. Purified anti-Clec antibodies at different concentrations were pre-incubated with Alexa488-Fc-Clec-1 in PSE at different concentrations for 15 min at room temperature. Pre-incubated mixes were then incubated on Fc-blocked/SAB (#34005-100, Invitrogen, Illkirch, France) pro-apoptotic PBMCs for 30 min on ice. Binding on cells were then fixed by PFA 2% in cold PBS for 10 min on ice and analyzed on CytoFlex cytofluorometer (Beckman Coulter France, Villepinte).
(§2) Methods. To measure competition on permeabilised Raji (CytoFix/cytoperm kit, BD Biosciences) which expressed CLEC1 ligand, Fc-CLEC1-labelled A488 which bound specifically to permeabilised Raji was used. To measure competition, Fc-CLEC1 labelled A488 at 10 nM or 20 nM was mixed with mouse anti-hCLEC1 at different concentrations for 15 min at RT then added on these cells for 30 min at 4° C. […] To measure competition on PMBC, we used human PBMC pre-treated by UV for 18 h to obtain apoptotic PBMC, which expressed CLEC1 ligand. Fc-CLEC1-labelled A488 bound specifically apoptotic UV-treated PBMC. To measure competition, Fc-CLEC1 labelled A488 at 10 nM was mixed with mouse anti-hCLEC1 at different concentrations for 15 min at RT then added on these cells for 30 min at 4° C.

[4] = molecular target: T3, Fc-CLEC1 labelled with Alexa Fluor 488; assay: FACS competition: blocks Fc-CLEC1-A488 (10 nM) binding to CLEC-1 ligand on UV-treated PBMC; % binding
Protocol: as §1, §2

- EC50 [1]: 0.148 µg/mL
- EC50 (read off the curve) [2]: ~60 ng/mL
- IC50 [3]: 0.873 µg/mL
- IC50 (read off the curve) [4]: ~700 ng/mL
B1: chimeric anti-CLEC-1A antibody 14H9 (antibody, human IgG4 S228P, kappa, V domains shown)
VH: QVQLKESGPGLVAPSQSLSITCTISGFSLTTYGIHWVRQPPGKGLEWLVVIWSDGSTIYNSALKSRLSISKDNSKSQVFLKMNSLQTDDTAIYYCARHGGYYNYFDYWGQGTTLTVSS
VL: DIQMNQSPSSLSASLGDTITITCHASQNINVWLSWYQQKPGNIPKLLIYKASNLHTGVPSRFSGSGSGTTFTLTIDSLQPEDIATYYCQQGQSYWTFGGGTKLEIKR
notes: also called 14H9chim; 14H9-VHwt-FcG4m / 14H9-VLwt-CLhk
